The record followed here is patent CN102952191A.

This test addresses 基因重组表达的CD33胞外区 (recombinant CD33 extracellular domain) (human) (UniProt P20138). Kind of test: phage ELISA, CD33-ECD coated, HRP/anti-M13 detection. A general note: In an ELISA, binding on a coated surface is turned into a signal by an enzyme label.
UniProt P20138, sequence (P20138 18-259): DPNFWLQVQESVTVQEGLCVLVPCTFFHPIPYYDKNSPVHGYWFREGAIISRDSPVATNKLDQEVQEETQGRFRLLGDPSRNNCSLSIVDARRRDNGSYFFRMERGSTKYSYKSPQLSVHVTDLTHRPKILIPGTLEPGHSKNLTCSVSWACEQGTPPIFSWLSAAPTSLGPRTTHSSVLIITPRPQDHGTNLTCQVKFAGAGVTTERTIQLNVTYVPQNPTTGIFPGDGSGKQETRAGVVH

B1: 噬菌体展示的单链抗体ZJL101 (phage-displayed scFv ZJL101; phage clones No. 3 and No. 4, identical inserts) (scFv, not shown: large carriers)
scFv: MAQVQLVQSGTVVKKPGSSVKVSCKTSGGTLPNHAINWVRQASGQGLEWMGWMSPNTGDTGYARKFQGRVTMTRDTSISTAYMELSSLRSDDTAIYYCATGDPRVGHSWGQGTLVTVSSGGGGSGGGGSGGGGSDIQMTQSPPSLSASVGDRVTITCRASQTIGSHLNWYQQKPGKAPKLLITGASSLQSGVPARFTGSGFGTDFTLTISSLQVEDLATYSCQQTYNTPRTFGQGTKVEIK
B1: the OD450nm was 1.6 OD450nm.
